The values that follow come from patent publication US20230062308A1, “TREATMENT OF CK8 POSITIVE CANCERS IN RELATION WITH K-RAS GENE STATUS” (INTERNATIONAL - DRUG - DEVELOPMENT - BIOTECH, priority 2017, published 2023).

For assay [1], the system named is Human HAN larynx cell line BICR18. Nature of the assay: In vivo tumour growth, HAN CDX model (larynx cell line BICR18). To be noted: BICR18 s.c. in SCID mice; HzR022 (D-A10) 10 mg/kg i.p. BIW × 3; cisplatin 2.5 mg/kg i.p. QW × 3. On the procedure: Human HAN larynx cell line BICR18 was subcutaneously injected in SCID mice, with a concentration of 1.10^6 cells per injection (200 μL). Mice were randomized when the tumours reached a mean volume of about 100 mm^3 for the 9 groups (total 45 mice). […] The endpoint was defined by animal ethics as a tumour diameter of >18 mm, significant weight loss or alteration of animal well-being. In order to assess the effectiveness of the compounds on tumourigenesis, tumour volume was measured two times a week. The size of the primary tumours were measured using calipers and the tumour volume (TV) was extrapolated to a sphere using the formula TV= 4/3π×r^3, by calculating the mean radius from the two measurements. The median and standard deviation were also calculated for each group. Median is preferred to mean in order to exclude the extreme values. MAb treatment was administered by intraperitoneal injection twice a week during three weeks at 10 or 1 mg/kg doses. The cisplatin (Myland) treatment was administered by intraperitoneal injection once per week during three weeks at 1, 2.5 or 5 mg/kg doses. The product was prepared in accordance with the sponsor's guidelines, i.e. diluted in PBS. Mice were sacrificed when the tumours reached a maximum volume of 1600 mm^3. […] The t-test (two-tailed test) was performed on the tumour volume values (mm^3) measured on the day of sacrifice.

In another assay the target is T1, CK8 (Homo sapiens, UniProt P05787).
T1 sequence (P05787 1-483): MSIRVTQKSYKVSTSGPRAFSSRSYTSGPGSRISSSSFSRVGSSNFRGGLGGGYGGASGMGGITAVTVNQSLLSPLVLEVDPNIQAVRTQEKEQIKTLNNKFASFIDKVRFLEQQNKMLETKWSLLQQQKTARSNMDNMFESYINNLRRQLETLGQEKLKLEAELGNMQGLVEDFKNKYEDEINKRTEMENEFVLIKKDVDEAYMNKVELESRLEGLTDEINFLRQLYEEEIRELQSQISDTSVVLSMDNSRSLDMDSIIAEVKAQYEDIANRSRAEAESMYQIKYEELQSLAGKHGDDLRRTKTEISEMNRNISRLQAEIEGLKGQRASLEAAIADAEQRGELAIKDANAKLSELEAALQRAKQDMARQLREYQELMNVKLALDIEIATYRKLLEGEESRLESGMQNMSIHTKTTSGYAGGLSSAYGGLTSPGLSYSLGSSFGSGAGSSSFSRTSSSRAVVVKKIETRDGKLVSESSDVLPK
Nature of the assay: Antibody internalisation assay by flow cytometry. The format is cell-based. On the set-up: methods to investigate on CK8 cellular expression at the cell surface analysed by flow cytometry; endogenous in cells. To be noted: 4° C. versus 37° C., 24 hours; 0.78 or 0.39 μg/mL; HCT116, U87MG, BICR56, BxPC3, DU145 cell lines (FIG. 4-6). On the procedure: This example describes methods to investigate on HzR022 (D-A10) internalisation following CK8 detection at the cell surface analysed by flow cytometry.
Flow cytometry experiments for MAb internalisation. Briefly, 2.10^5 cells per 96 wells are incubated at 4° C. versus 37° C. during 24 hours with a dilution of unconjugated murine anti CK8 MAb at 50 μg/mL then diluted at ½. The MAb anti CK8 tested were D-A10 (IgG2b), D-F5 (IgG2a) or D-D6 (IgG1), from iDD biotech MAb panel. The isotype matched MAbs used were B-Z1 (IgG1), B-Z2 (IgG2a) or B-E4 (IgG2b) (Diaclone, Besancon, France). Unbound antibodies were washed away with PBS (Life technologies, St Aubin, France) supplemented by 1% Bovine Serum Albumin (Sigma, St Quentin Fallavier, France). Subsequently, cells are centrifuged (5 min at 400 g) and bound antibody is detected with Fluorescein Isothiocyanate (FITC) conjugated goat (Fab′)2 polyclonal anti mouse Ig (MP Biomedical, Illkirch, France) at 4° C. for 30 min. Detection reagent is washed away and cells are centrifuged (5 min at 400 g) and suspended in 300 μL PBS. Bound detection antibody is quantified on a FACSCAN (BD Biosciences, Rungis, France), (FL1 channel, 3 000 events per acquisition). During the experiment, the respective isotype controls are included to exclude any unspecific binding events
Results of experiments are shown in FIG. 4 for D-A10 MAb (at 0.78 or 0.39 μg/mL), in FIG. 5 for D-D6 (at 0.78 or 0.39 μg/mL), in FIG. 6 for D-F5 (at 0.78 or 0.39 μg/mL). One example was shown for CRC from HCT116 cell line, GBM from U87MG cell line, HAN from BIRC56 cell line, PC from BxPC3 or PRC from DU145.
A general note: Flow cytometry measures light scatter and fluorescence of single cells or particles in a stream.

Substitutions are numbered along the chain they refer to.

Take `N.N.[Cl][Pt][Cl]` [cisplatin, reference compound]: the “tumour growth control (tumour volume, FIG. 3)” value in assay [1] is given as “rapid cisplatin escape”.

B1: D-A10: murine anti-CK8 monoclonal antibody (IgG2b); VL SEQ ID NO: 2, VH SEQ ID NO: 4 (antibody, V domains shown)
VH: EVQLLETGGGLVQPGGSRGLSCEGSGFTFSGFWMSWVRQTPGKTLEWIGDINSDGSAIKYAPSIKDRFTIFRDNDKSTLYLQMSNVRSEDTATYFCIAHYSGGGFAYWGQGTSVTVSS
VL: NIVMTQAAPSVPVTPGESVSISCRSSKSLLYSNGNTYLYWFLQRPGQSPQRLIYYMSNLASGVPDRFSGRGSGTDFTLRISRVEAEDVGVYYCMQSLEYPFTFGGGTKLEIK
modifications: VH mD-A10; VLmD-A10
As to B1, the internalization potential result with CK8 is given as “highest internalization potential”.

B2: D-F5: murine anti-CK8 monoclonal antibody (IgG2a); VL SEQ ID NO: 40, VH SEQ ID NO: 42 (antibody, V domains shown)
VH: QVQLKESGPGLVAPSQSLSITCTVSGFSLTSYGVHWVRQPPGKGLEWLGVIWAGGSTNYNSALMSRLRISKDNSKSQVFLKMNSLQTDDTAMYYCARIYGNYGRFAYWGQGTSVTVSS
VL: DVVMTQTPLSLPVSLGDQASISCRSSQSIVHSNGNTYLEWYLQKPGQSPKLLIYKVSNRLSGVPDRFSGSGSGTDFTLKISRVEAEDLGVYYCFQGSLVPLTFGGGTKLEIK
modifications: VH-mR022 (D-F5); VL-mR022 (D-F5)
With B2, the internalization potential entry in the assay with CK8 is “lower internalization potential”.

B3: D-D6: murine anti-CK8 monoclonal antibody (IgG1); VL SEQ ID NO: 36, VH SEQ ID NO: 38 (antibody, V domains shown)
VH: DVQLQESGPGLVKPSQSLSLTCTVTGYSITSDYAWNWIRQFPGNKLEWMGYISYSGRTSYNPSLKSRISITRDTSKNHFFLQLNSVTTEDTATYYCAPLTTGVGYAMDYWGQGTSVTVSS
VL: B2 VL with I29L, E39H, L51V, L60F, Y92F, F94S, G96S, S97T, L98H, L101F
modifications: VH-mR022 (D-D6); VL-mR022 (D-D6)
Take B3: in the assay with CK8, the internalization potential result is on record as “highest internalization potential”.
